{"source": "paper PMC3342439", "about": "(Journal of the American Chemical Society, 2012)", "binders": {"B1": {"name": "Acyl carrier protein AcpP (Sco2389), biotinylated (natural protein, Streptomyces coelicolor, UniProt P72393 1-82, looked up)", "chain": "MAATQEEIVAGLAEIVNEIAGIPVEDVKLDKSFTDDLDVDSLSMVEVVVAAEERFDVKIPDDDVKNLKTVGDATKYILDHQA", "modifications": "biotin (EZ-Link NHS-LC-LC-biotin, 5:1 molar ratio of biotin to protein)"}}, "test_in_all_cases": "BLI", "key": {"[1]": {"molecular_target": "T1, Germicidin synthase (Gcs), wild type (Streptomyces coelicolor, UniProt Q9K464 1-389)", "T1 sequence (looked up)": "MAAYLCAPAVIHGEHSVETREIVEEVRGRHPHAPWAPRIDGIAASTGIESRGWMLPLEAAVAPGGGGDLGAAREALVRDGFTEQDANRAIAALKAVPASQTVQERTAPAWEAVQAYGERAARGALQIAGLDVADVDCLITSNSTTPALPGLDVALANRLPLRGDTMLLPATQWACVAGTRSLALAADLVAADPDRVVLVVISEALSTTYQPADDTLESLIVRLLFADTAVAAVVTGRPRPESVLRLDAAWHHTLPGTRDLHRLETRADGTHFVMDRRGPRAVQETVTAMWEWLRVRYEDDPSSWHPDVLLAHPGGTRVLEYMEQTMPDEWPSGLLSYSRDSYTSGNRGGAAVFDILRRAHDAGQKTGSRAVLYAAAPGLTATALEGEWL"}, "[2]": {"molecular_target": "T2, Germicidin synthase (Gcs) R276A (Streptomyces coelicolor, UniProt Q9K464 1-389, R276A)", "T2 sequence (looked up)": "T1 sequence (looked up) with R276A"}, "[3]": {"molecular_target": "T3, Germicidin synthase (Gcs) R277A (Streptomyces coelicolor, UniProt Q9K464 1-389, R277A)", "T3 sequence (looked up)": "T1 sequence (looked up) with R277A"}, "[4]": {"molecular_target": "T4, Germicidin synthase (Gcs) R280A (Streptomyces coelicolor, UniProt Q9K464 1-389, R280A)", "T4 sequence (looked up)": "T1 sequence (looked up) with R280A"}, "[5]": {"molecular_target": "T5, Germicidin synthase (Gcs) R317A (Streptomyces coelicolor, UniProt Q9K464 1-389, R317A)", "T5 sequence (looked up)": "T1 sequence (looked up) with R317A"}, "[6]": {"molecular_target": "T6, Germicidin synthase (Gcs) R276/317A double mutant (Streptomyces coelicolor, UniProt Q9K464 1-389, R276/317A | R276/317A)", "T6 sequence (looked up)": "T1 sequence (looked up) with R276A, R317A"}}, "note": "Positions count from the first letter of the chain named.", "data": [{"binder": "B1", "values": [{"measurement": "Kd", "setting": "[1]", "value": 225, "unit": "nM"}, {"measurement": "koff", "setting": "[1]", "value": 0.00022, "unit": "s⁻¹"}, {"measurement": "kon", "setting": "[1]", "value": 1190, "unit": "M⁻¹ s⁻¹"}, {"measurement": "Kd", "setting": "[2]", "value": 185, "unit": "nM"}, {"measurement": "koff", "setting": "[2]", "value": 0.000253, "unit": "s⁻¹"}, {"measurement": "kon", "setting": "[2]", "value": 628, "unit": "M⁻¹ s⁻¹"}, {"measurement": "Kd", "setting": "[3]", "value": 403, "unit": "nM"}, {"measurement": "koff", "setting": "[3]", "value": 0.000128, "unit": "s⁻¹"}, {"measurement": "kon", "setting": "[3]", "value": 695, "unit": "M⁻¹ s⁻¹"}, {"measurement": "Kd", "setting": "[4]", "value": 184, "unit": "nM"}, {"measurement": "koff", "setting": "[4]", "value": 0.000122, "unit": "s⁻¹"}, {"measurement": "kon", "setting": "[4]", "value": 769, "unit": "M⁻¹ s⁻¹"}, {"measurement": "Kd", "setting": "[5]", "value": 161, "unit": "nM"}, {"measurement": "koff", "setting": "[5]", "value": 0.000407, "unit": "s⁻¹"}, {"measurement": "kon", "setting": "[5]", "value": 1810, "unit": "M⁻¹ s⁻¹"}, {"measurement": "Kd", "setting": "[6]", "value": 192, "unit": "nM"}, {"measurement": "koff", "setting": "[6]", "value": 0.00017, "unit": "s⁻¹"}, {"measurement": "kon", "setting": "[6]", "value": 892, "unit": "M⁻¹ s⁻¹"}]}]}
